According to publication PMC6368300:

Molecular target: Pyruvate Kinase M2 (human) (UniProt P14618)
Assay: SPR; Autolab SPR; PKM2 immobilised by NHS/EDC coupling; Histone H3 100 nM-1000 nM as analyte; 10 mM HEPES pH 7.4, 150 mM NaCl, 3 mM EDTA, 0.05% NP-40; 25°C; 1:1 Langmuir model, KD from the equilibrium equation; triplicate

Sequence of UniProt P14618 (P14618 whole entry): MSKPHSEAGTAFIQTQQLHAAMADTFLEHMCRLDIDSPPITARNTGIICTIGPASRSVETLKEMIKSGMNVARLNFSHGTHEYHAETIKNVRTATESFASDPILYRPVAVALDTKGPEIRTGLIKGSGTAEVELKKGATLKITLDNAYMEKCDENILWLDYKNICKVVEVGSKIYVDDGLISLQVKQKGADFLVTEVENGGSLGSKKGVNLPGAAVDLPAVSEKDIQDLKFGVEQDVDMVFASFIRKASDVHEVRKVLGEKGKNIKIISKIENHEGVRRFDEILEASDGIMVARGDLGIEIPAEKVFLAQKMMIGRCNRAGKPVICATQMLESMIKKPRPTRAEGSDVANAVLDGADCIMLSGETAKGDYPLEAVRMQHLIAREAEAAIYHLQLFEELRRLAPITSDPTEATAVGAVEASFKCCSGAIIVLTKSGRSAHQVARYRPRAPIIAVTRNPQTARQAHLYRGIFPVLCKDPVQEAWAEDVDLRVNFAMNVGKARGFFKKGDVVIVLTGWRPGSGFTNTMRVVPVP

Substance: Histone H3 (from UniProt P84233 1-136) (natural protein; other documents disagree on this pair)
- Kd: 6.39 µM
